Laboratory results published in patent US20040106557A1 (LICENTIA, published 2004).

T1: GST-C-4 (peptide C-4 expressed as glutathione S-transferase fusion protein)
T1 chain: CVAYCIEHHCWTC

B1: GST-A-1 (peptide A-1 expressed as glutathione S-transferase fusion protein) (other)
chain: CVFTSDYAFC
B2: GST-B-2 (peptide B-2 expressed as glutathione S-transferase fusion protein) (other)
chain: CVFAHNYDYLVC
B3: Prostate specific antigen (PSA), purified from human seminal fluid (enzyme)
chain: not shown
notes: mature; Mostly captured on wells by MAb 5E4 (IFMA) or on the chip by MAb H117 (SPR); in solution in enzyme assays; also called free PSA; active PSA

Legend:
[1] = target: B3; test: SPR, PSA captured by MAb H117, 30 µM Zn2+, single fit, 3.4 µM peptide
[2] = target: B3; test: cell-based or functional assay
[3] = target: B3; test: GST-peptide IFMA, PSA captured by MAb 5E4, Eu-labelled anti GST tracer
[4] = target: B3; test: SPR, PSA captured by MAb H117, 10 µM Zn2+
[5] = target: B3; test: SPR, GST-peptide injected over PSA captured by MAb H117; average of 3 concentrations
[6] = target: B3; test: SPR, PSA captured by MAb H117, 1 µM Zn2+
[7] = target: B3; test: SPR, PSA captured by MAb H117, 10 µM Zn2+, single fit, 3.4 µM peptide
[8] = target: B3; test: SPR, PSA captured by MAb H117, 1 µM Zn2+, single fit, 3.4 µM peptide
[9] = target: B3; test: SPR, PSA captured by MAb H117, 30 µM Zn2+
[10] = target: B3; test: SPR, PSA captured by MAb H117, 0 µM Zn2+, average of 3 fits (3.4-8.5 µM analyte)
[11] = target: B3; test: cell-based or functional assay; remark: listed apart in the source
[12] = target: T1, GST-C-4 (peptide C-4 expressed as …); test: competition IFMA: GST-peptide (167 nM) preincubated with PSA in solution, then binding to PSA captured by MAb 5E4
Protocol: (§1) Various amounts of GST-peptide or wild type GST were added to wells containing captured PSA in 200 μL of assay buffer and incubated for 1 h. To test the effect of Zn²⁺ on the binding between GST-peptide and PSA, various concentrations of Zn²⁺ (1-200 μM) were added to the buffer in the incubation step of GST-peptide and PSA. […] After incubation for 1 h the wells were washed and Eu³⁺-labeled anti GST antibody was added. After further incubation and washing the bound fluorescence was measured as described above. When assessing the binding of the GST-peptides to other proteinases, including chymotrypsin, cathepsin G, trypsin, and kallikrein, these proteinases were captured by their specific antibodies coated to the microtitration well. Recombinant hK2 was captured by MAb 5E4, which is known to bind hK2 (24). For assessing the binding of the GST-peptides with complexes of PSA, including PSA-ACT and PSA-α1-protease inhibitor (PSA-API) (28), the complexes were captured by antibodies against ACT and API, respectively. After capturing the various proteinases or PSA complexes, GST-peptide was added and binding was monitored as described above for the GST-peptide IFMA.
(§2) In this connection, we refer also to FIG. 3. GST-C-4 was preincubated with increasing concentrations of PSA in solution for 1 h. Then the samples of the mixtures were added to wells in which PSA had been captured by anti PSA MAb. The binding was measured by IFMA. Data represent mean values from duplicate wells ±SE. The corresponding values for the peptides A-1 (SEQ ID NO 1) and B-2 (SEQ ID NO 6) were 3.3 nM and 1 nM, respectively (data not shown). Preincubation of the GST-peptides with an excess of free PSA inhibited binding to the solid phase PSA. The binding of peptide C-4 (SEQ ID NO 11) to captured PSA was reduced by 50% at a PSA concentration of 0.7 nM.

[13] = target: B1; test: as above
Protocol: as §1, §2

[14] = target: B2; test: as above
Protocol: as §1, §2

Binder | Kd [1] [nM] | koff [1] [s⁻¹] | kon [1] [M⁻¹ s⁻¹] | minimum peptide concentration affecting the activity [2] [nM] | Maximal binding (CPS) [3] [CPS] | increase (fold) of affinity against 0 µM Zn2+ [4] [fold] | Kd [5] [nM] | koff [5] [s⁻¹] | kon [5] [M⁻¹ s⁻¹] | Kd [7] [nM] | koff [7] [s⁻¹] | kon [7] [M⁻¹ s⁻¹] | Kd [8] [nM] | koff [8] [s⁻¹] | increase (fold) of affinity against 0 µM Zn2+ [9] [fold] | Kd [10] [nM] | koff [10] [s⁻¹] | kon [10] [M⁻¹ s⁻¹] | 50% stimulation [11] [µM] | further results
B1 | 1000 | 0.002 | 1900 | 300 | 219000 | 5.9 | 7800 | 0.08 | 10300 | 1400 | 0.0016 | 1200 | 2600 | 0.0047 | 7.7 | 7800 | 0.08 | 10300 | 2.2 | increase (fold) of affinity against 0 µM Zn2+ [6]: 3 fold; kon [8]: 1800 M⁻¹ s⁻¹
B2 | 800 | 0.0006 | 830 | 300 | 428000 | 6 | 3500 | 0.057 | 16300 | 600 | 0.0016 | 2650 | 3100 | 0.0035 | 4.7 | 3500 | 0.057 | 16300 | 1.7 | –
B3 | – | – | – | – | – | – | – | – | – | – | – | – | – | – | – | – | – | – | – | IC50 [12]: 0.7 nM; IC50 [13]: 3.3 nM; IC50 [14]: 1 nM
